B2: FITC-labeled TbtA leader peptide (peptide)
chain: SRRGSMLNLSDLPMDVFEMADSGMEVESLTAGHGMPEVGA
modifications: not fully specified (N-terminus); also: FITC label

No end group written: not given here. *: point of attachment. FITC = O=C1OC2(c3ccc(O)cc3Oc3cc(O)ccc32)c2ccc(NC(=S)*)cc21; Ahx = NCCCCCC(=O)O

Holding throughout (assay): fluorescence polarisation
Background: Fluorescence polarisation rises when a labelled molecule tumbles more slowly, as on binding a larger partner.

Assay [1] addresses CurC wild-type (Corynebacterium urealyticum DSM 7109).
Assay [2] has as its target B2.
Assay [3] addresses HcaF wild-type (Bacillus sp. Al Hakam).
For assay [4], the target named is HcaF D21A (Bacillus sp. Al Hakam).
The target of assay [5] is HcaF F35A (Bacillus sp. Al Hakam).
Assay [6] deals with TbtF/G (Thermobispora bispora).
Assay [7] has as its target TbtF D19A (Thermobispora bispora).
Assay [8] addresses TbtF L24A (Thermobispora bispora).
The target of assay [9] is TbtF V30A (Thermobispora bispora).
Assay [10] concerns the target TbtF F68A (Thermobispora bispora).
For assay [11], the target named is TbtF R71A (Thermobispora bispora).
Assay [12] has as its target TbtF Q74A (Thermobispora bispora).
Assay [13] addresses FITC-labeled StmA leader peptide (Streptomonospora alba, N-terminal FITC-Ahx (fluorescein isothiocyanate with an amino hexyl linker)).

The source of these data is PMC4509860 (Nature chemical biology, 2015).

The Kd is the equilibrium constant for the complex coming apart. Higher therefore signals lower affinity. With {FITC-Ahx}-GMSTLISKLPPAVSTDSSKIVSEVQAFEPT [FITC-labeled CurA leader], the dissociation constant (Kd) in [1] was 7000 nM.

B1: TbtG wild-type (enzyme)
chain: MSDALAAAIIGAGLLADELAAAFRPYGEVIRLDEVERAETEAHRLRALVMACDGWDTSIYRETRERCRRLGIPWLPVRTEHGIAVIGPLERPGEPGCAHCFELRRERARPDAAAYRAILNHHGPELAKRPSPYLDELAAATIAALGVRMIDQGSGCHVWYVRLNGLTVERHAFLPEPLCPECGSLPMDDRDSAVIVLRSQPKRAPDDYRTRDIVDELDALVADYVDGESGLIRPLVRDTQGGLVIAGAMLPLRFAGGSEPGVGRTRGYRTSEVTAILEALERWGGVEPGGKRTVIRAAFRDIAADALDPRTLGVHSPEAYAAEDFPFRPFTEDEETEWVWGYSFARRSPILVPETVAYYYVHRDRPRQERPFLYEISNGCALGSGMEEAILYGILEVVERDAFLMTWYGRLGVPRIDLDSAKNRMVPLQAAAISAETGYRIEVYDTTMEHGIPSVWALAIRGGEEPTAAPRPRMVCAAAAHLDPEQAVLSALSELGPLLADLLRRYPDEAERARRMVDDPGLVTTMHDHSTLYGADEAFGRLEFLTGTASTRDLAAMRESTVAFRSADLRDDLLEVIGRILAEGMDVIVVDQTTPEHRVHGFTCVKVLIPGMIPMTFGHRNRRLDGLTRPLVIPYRLGYRPAPLTPEALNPHPHPFP
Regarding B1, in assay [2], the dissociation constant Kd was over 10000 nM.

Regarding SGSMNQFQQELQSLNLNDYQTGNVVYWDPQQSQYPYYYIQDDAR (not fully specified (N-terminus); also: FITC label) [FITC-labeled HcaA leader peptide], the dissociation constant (Kd) in assay [3] stood at 89 nM; in [4] it was 130 nM; in assay [5] it was 1700 nM.

With B2, the dissociation constant (Kd) in [6] was 66 nM; in assay [7], 57 nM; in assay [8] it was 65 nM; in assay [9], 210 nM; in [10] it was 7700 nM; in assay [11], 190 nM. In assay [12], this molecule displayed a Kd of 49 nM.

B3: StmE L73A (natural protein)
chain: MRPNVQIVSRDGDNFVLNLRNGEYWHLNSSAYTMLTRIADGETVDEVARDISAATSAPEQTVRDDLTEAVDQLRKAKLVEVRHS
Turning to B3, the Kd in assay [13] is over 10000 nM.

B4: TbtF wild-type (natural protein)
chain: MIPARPVLTPGVRYAPTSDGVAFLTRDGIVSITGVSIHRWIDRIAPHLTGERSVAELTDGLAPERRAFVLRLLQALADRGLIIDAAGGREPRLERGTACALHVTETCGPYRESLPKLARSLADALTRAGLDVRLASASEPCDPERCHALVHLTAADEVGLAAAERLDRLSERWGVPIAHVVVWGGEIWRTEAGTVGEDGLPLAAGWRRLTALRPDTEERVPISPTAAVVVAGQVAADVRDRLTTATRAGRRPRLHVVEPARLTCRAHHFIPHFHTMPLTGDAPLAEELTEEEFSRRAAALMDDRTGVFTEIAEGDFGQLPLHVAVTTVADPVGLLGPAGDRPRVIGVGPDFATARYRTARAAIALYGLLAVDPRRLVDADGEPLAGPRTSAAELEDLLGRIRAGGLPAFVRAEDVRGGPPRLLPASSVFPFATARALLAGTVPTGTAVGYSEEGALRAALLDHCRERTLADLASRRVARLTPDTAPSDPVTARYLAFLRAIGLPFDVLDATGPLGVPVYVGVLDGRVVAAEAGASPGEAFRSVLEGILRGLQGIPAARSLPDTLPPVLPEAMAVPDGSPLSAEALAAALARAGLSVSVVRLDHDRRVHALIPHCVRVMVTGEESAHV
In [2], B4 had a Kd of 66 nM.

B5: TbtF R79A (natural protein)
chain: MIPARPVLTPGVRYAPTSDGVAFLTRDGIVSITGVSIHRWIDRIAPHLTGERSVAELTDGLAPERRAFVLRLLQALADAGLIIDAAGGREPRLERGTACALHVTETCGPYRESLPKLARSLADALTRAGLDVRLASASEPCDPERCHALVHLTAADEVGLAAAERLDRLSERWGVPIAHVVVWGGEIWRTEAGTVGEDGLPLAAGWRRLTALRPDTEERVPISPTAAVVVAGQVAADVRDRLTTATRAGRRPRLHVVEPARLTCRAHHFIPHFHTMPLTGDAPLAEELTEEEFSRRAAALMDDRTGVFTEIAEGDFGQLPLHVAVTTVADPVGLLGPAGDRPRVIGVGPDFATARYRTARAAIALYGLLAVDPRRLVDADGEPLAGPRTSAAELEDLLGRIRAGGLPAFVRAEDVRGGPPRLLPASSVFPFATARALLAGTVPTGTAVGYSEEGALRAALLDHCRERTLADLASRRVARLTPDTAPSDPVTARYLAFLRAIGLPFDVLDATGPLGVPVYVGVLDGRVVAAEAGASPGEAFRSVLEGILRGLQGIPAARSLPDTLPPVLPEAMAVPDGSPLSAEALAAALARAGLSVSVVRLDHDRRVHALIPHCVRVMVTGEESAHV
Take B5: the equilibrium dissociation constant (Kd) in assay [2] was found to be 79 nM.
